Details in all cases: protein: recombinant; tags: N-terminal His6; chain copies: 2; none in NMR; blunt
In series [1] the target is T1, cToxR_1-134 (Vibrio cholerae, UniProt P15795 1-134). Nature of the series: NMR CSP titration; mean as printed; T111 28.26 ± 5.73, L99 27.88 ± 3.01.
The target in series [2] is T1, cToxR_1-134. Nature of the series: fluorescence anisotropy.
The target of series [3] is T1, cToxR_1-134. Nature of the series: NMR CSP titration; mean as printed; T111 0.15 ± 4e-9, L99 0.63 ± 1e-8.
The target of series [4] is T1, cToxR_1-134. The series is described as follows: NMR CSP titration; mean as printed; T111 6.82 ± 1.07, L99 5.16 ± 0.46.
The target of series [5] is T1, cToxR_1-134. Nature of the series: NMR CSP titration; mean as printed; T111 14.21 ± 0.31, L99 14.78 ± 6.62.

T1 sequence (P15795 1-134): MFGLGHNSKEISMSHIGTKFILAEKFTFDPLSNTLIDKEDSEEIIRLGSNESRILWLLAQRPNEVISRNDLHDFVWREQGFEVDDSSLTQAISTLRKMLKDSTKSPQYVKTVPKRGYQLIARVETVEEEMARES

B1: ctx (dsDNA)
DNA 1: GATTTTTGATTTT
DNA 2: AAAATCAAAAATC
The Kd is the free concentration of one partner at which half of the binding sites on the other are occupied at equilibrium, for simple one-to-one binding. For the molecule B1, the figures for the Kd in series [1] and in series [2] were 28.1 µM and 9.71 ± 0.84 µM, respectively.

B2: toxT (dsDNA)
DNA 1: CTCAAAAAACATAAAA
DNA 2: TTTTATGTTTTTTGAG
In the case of B2, the values for the Kd in series [3] and in series [2] were 0.35 µM and 0.66 ± 0.1 µM, respectively.

B3: ompU (dsDNA)
DNA 1: ATTTATATCATTTTA
DNA 2: TAAAATGATATAAAT
For the molecule B3, the Kd in series [4] came out at 5.99 µM; in series [2], 5.49 ± 0.91 µM.

B4: ompT (dsDNA)
DNA 1: TTTTATGGTATTTGA
DNA 2: TCAAATACCATAAAA
For the molecule B4, the Kd was 14.5 µM in series [5] and 12.8 ± 1.27 µM in series [2].

Values taken from paper PMC8517210, “Structural and DNA-binding properties of the cytoplasmic domain of Vibrio cholerae transcription factor ToxR”.
